# Measured values taken from patent US20200190501.
# T1: mini-cellulose-binding protein A (mCbpA), P38058
# T1 chain: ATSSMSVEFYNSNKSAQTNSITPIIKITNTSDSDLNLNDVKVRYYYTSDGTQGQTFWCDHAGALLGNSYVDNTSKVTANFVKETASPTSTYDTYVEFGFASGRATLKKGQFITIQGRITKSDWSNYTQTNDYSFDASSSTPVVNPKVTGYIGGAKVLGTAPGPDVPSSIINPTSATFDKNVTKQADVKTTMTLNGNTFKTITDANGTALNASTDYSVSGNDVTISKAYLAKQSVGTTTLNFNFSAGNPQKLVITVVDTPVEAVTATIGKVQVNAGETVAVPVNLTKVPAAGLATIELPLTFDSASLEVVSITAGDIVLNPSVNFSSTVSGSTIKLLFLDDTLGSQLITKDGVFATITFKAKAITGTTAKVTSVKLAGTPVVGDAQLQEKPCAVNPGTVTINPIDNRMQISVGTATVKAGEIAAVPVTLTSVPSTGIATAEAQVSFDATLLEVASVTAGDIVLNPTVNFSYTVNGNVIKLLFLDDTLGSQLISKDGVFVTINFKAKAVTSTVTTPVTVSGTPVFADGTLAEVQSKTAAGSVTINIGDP
# Target: T1, mini-cellulose-binding protein A …
protein,measurement,value
dockerin-fused chimeric beta-agarase AgaB (AgaB-Doc) (protein) GDNSKFDSATDLPVEQEQEQETEQEGEPEESSEQDLVEEVDWKDIPVPADAGPNMKWEFQEISDNFEYEAPADNKGSEFLEKWDDFYHNAWAGPGLTEWKRDRSYVADGELKMWATRKPGSDKINMGCITSKTRVVYPVYIEARAKVMNSTLASDVWLLSADDTQEIDILEAYGADYSESAGKDHSYFSKKVHISHHVFIRDPFQDYQPKDAGSWFEDGTVWNKEFHRFGVYWRDPWHLEYYIDGVLVRTVSGKDIIDPKHFTNTTDPGNTEIDTRTGLNKEMDIIINTEDQTWRSSPASGLQSNTYTPTDNELSNIENNTFGVDWIRIYKPVEKVNKDGKVNAIDYAVLKSILLGTNTNVDLSVSDMNKDGKVNALDLAVLKKMLLS,degradation activity using purified agar as a substrate,"the degradation activity increased in the order of agarase, agarase-expansin, and agarase-expansin-mCbpA"
